This series deals with rLdACT (Leishmania actin) (Leishmania donovani, UniProt Q86M27 1-376). In words: EMSA. (In EMSA bound probe runs differently from free probe, usually more slowly.)

B1: 30 bp DNA probe (dsDNA)
DNA 1: GCGGCCGCATGGCTGACAACGAGCAGAGCT
DNA 2: AGCTCTGCTCGTTGTCAGCCATGCGGCCGC
For the molecule B1, the binding result was “binds”.

For the origin of these results see article PMC2879525.
